{
  "source": "patent EP4782541A1",
  "about": "(Nanjing Probio Biotech Co., Ltd., dated 2026)",
  "molecules": {"B1": {"name": "BsAb-12 (bispecific antibody, human IgG1, lambda)", "chain": "EVQLVESGGGLVQPGGSLRLSCAASGRSFSSFQMGWFRQAPGKEREFVAASGWSGGPTYYWDSVIGRFTISTDNSKNTLYLQMNSLRAEDTAVYYCYEDRVLSGRPVRYWGQGTLVTVSSDKTHTCPPCPAPESTRGPSVFLFPPKPKDTLMISRTPEVTCVVVDVSHEDPEVKFNWYVDGVEVHNAKTKPREEQYNSTYRVVSVLTVLHQDWLNGKEYKCKVSNKALPAPIEKTISKAKGQPREPQVCTLPPSRDELTKNQVSLSCAVKGFYPSDIAVEWESNGQPENNYKTTPPVLDSDGSFFLVSKLTVDKSRWQQGNVFSCSVMHEALHNHYTQKSLSLSPGK", "heavy": "EVQLVESGGGLVQPGGSLRLSCAASGRSFSSFQMGWFRQAPGKEREFVAASGWSGGPTYYWDSVIGRFTISTDNSKNTLYLQMNSLRAEDTAVYYCYEDRVLSGRPVRYWGQGTLVTVSSGGGGSGGGGSGGGGSEVQLVESGGGLVQPGRSLRLSCAASGFTFNTYAMNWVRQAPGKGLEWVARIRSKYNNYATYYADSVKDRFTISRDDSKSIAYLQMNSLKTEDTAVYYCVRHGNFGNSYVSWFAYWGQGTLVTVSSASTKGPSVFPLAPSSKSTSGGTAALGCLVKDYFPEPVTVSWNSGALTSGVHTFPAVLQSSGLYSLSSVVTVPSSSLGTQTYICNVNHKPSNTKVDKKVEPKSCDKTHTCPPCPAPESTRGPSVFLFPPKPKDTLMISRTPEVTCVVVDVSHEDPEVKFNWYVDGVEVHNAKTKPREEQYNSTYRVVSVLTVLHQDWLNGKEYKCKVSNKALPAPIEKTISKAKGQPREPQVYTLPPCRDELTKNQVSLWCLVKGFYPSDIAVEWESNGQPENNYKTTPPVLDSDGSFFLYSKLTVDKSRWQQGNVFSCSVMHEALHNHYTQKSLSLSPGK", "light": "QTVVTQEPSLTVSPGGTVTLTCRSSTGAVTTSNYANWVQQKPGQAPRGLIGGTNKRAPGVPARFSGSLLGGKAALTLSGVQPEDEAEYFCALWYSNLWVFGGGTKLTVLGQPKAAPSVTLFPPSSEELQANKATLVCLISDFYPGAVTVAWKADSSPVKAGVETTTPSKQSNNKYAASSYLSLTPEQWKSHRSYSCQVTHEGSTVEKTVAPTECS", "notes": "also called BsAb-12 CD3×ROR1"}},
  "key": {"[1]": {"molecular_target": "human ROR1 (on CHO-K1/ROR1 cells and ROR1 tumour cell lines) (human) (UniProt Q01973)", "sequence (Q01973 30-937)": "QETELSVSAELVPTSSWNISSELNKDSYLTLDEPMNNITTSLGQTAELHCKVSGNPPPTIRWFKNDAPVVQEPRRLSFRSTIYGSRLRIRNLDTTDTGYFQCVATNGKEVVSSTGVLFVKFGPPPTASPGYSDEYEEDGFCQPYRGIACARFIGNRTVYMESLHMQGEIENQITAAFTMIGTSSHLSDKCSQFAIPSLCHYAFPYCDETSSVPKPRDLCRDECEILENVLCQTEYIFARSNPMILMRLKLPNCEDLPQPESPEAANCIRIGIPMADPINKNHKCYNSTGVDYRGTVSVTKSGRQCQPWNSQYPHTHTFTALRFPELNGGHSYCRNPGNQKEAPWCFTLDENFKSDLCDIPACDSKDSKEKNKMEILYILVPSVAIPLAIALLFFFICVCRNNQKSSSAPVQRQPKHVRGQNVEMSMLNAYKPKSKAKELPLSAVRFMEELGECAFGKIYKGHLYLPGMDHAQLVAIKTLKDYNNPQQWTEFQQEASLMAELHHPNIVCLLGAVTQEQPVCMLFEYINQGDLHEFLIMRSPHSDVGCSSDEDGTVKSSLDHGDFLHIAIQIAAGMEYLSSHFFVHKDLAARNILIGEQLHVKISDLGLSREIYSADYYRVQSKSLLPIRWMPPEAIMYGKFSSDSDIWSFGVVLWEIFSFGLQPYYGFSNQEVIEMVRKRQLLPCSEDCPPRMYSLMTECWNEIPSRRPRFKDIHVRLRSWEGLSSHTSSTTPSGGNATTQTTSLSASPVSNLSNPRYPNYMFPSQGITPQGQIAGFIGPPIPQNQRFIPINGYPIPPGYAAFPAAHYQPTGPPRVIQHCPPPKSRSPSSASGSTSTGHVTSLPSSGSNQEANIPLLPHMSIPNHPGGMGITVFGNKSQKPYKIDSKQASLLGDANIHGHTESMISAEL", "test": "cell-based or functional assay"}, "[2]": {"molecular_target": "human ROR1 (on CHO-K1/ROR1 cells and ROR1 tumour cell lines) (human) (UniProt Q01973)", "test": "flow cytometry on MDA-MB-231 cells (human ROR1 tumour cell line)"}, "[3]": {"molecular_target": "human ROR1 (on CHO-K1/ROR1 cells and ROR1 tumour cell lines) (human) (UniProt Q01973)", "test": "flow cytometry on Jeko-1 cells (human ROR1 tumour cell line)"}, "[4]": {"molecular_target": "human ROR1 (on CHO-K1/ROR1 cells and ROR1 tumour cell lines) (human) (UniProt Q01973)", "test": "flow cytometry on CHO-K1/ROR1 cells overexpressing human ROR1"}, "[5]": {"molecular_target": "human ROR1 (on CHO-K1/ROR1 cells and ROR1 tumour cell lines) (human) (UniProt Q01973)", "test": "flow cytometry on PSN-1 cells (human ROR1 tumour cell line)"}, "[6]": {"molecular_target": "human ROR1 (on CHO-K1/ROR1 cells and ROR1 tumour cell lines) (human) (UniProt Q01973)", "test": "flow cytometry on A375 cells (human ROR1 tumour cell line)"}, "[7]": {"molecular_target": "T1, human CD3 (on Jurkat cells) (human, UniProt P07766 23-207; P09693 23-182; P04234 22-171)", "T1 construct": "whole, on cells", "T1 sequence (P07766 23-207, chain 1 of 3)": "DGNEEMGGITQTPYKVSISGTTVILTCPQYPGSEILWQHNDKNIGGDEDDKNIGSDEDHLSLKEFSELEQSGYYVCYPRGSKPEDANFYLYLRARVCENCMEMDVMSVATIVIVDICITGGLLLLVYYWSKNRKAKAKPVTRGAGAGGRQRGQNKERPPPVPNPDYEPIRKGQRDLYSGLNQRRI", "T1 sequence (P09693 23-182, chain 2 of 3)": "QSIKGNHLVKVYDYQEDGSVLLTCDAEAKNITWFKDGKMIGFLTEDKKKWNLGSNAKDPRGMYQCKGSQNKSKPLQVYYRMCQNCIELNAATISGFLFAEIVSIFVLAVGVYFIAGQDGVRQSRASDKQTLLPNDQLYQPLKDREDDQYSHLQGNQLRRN", "T1 sequence (P04234 22-171, chain 3 of 3)": "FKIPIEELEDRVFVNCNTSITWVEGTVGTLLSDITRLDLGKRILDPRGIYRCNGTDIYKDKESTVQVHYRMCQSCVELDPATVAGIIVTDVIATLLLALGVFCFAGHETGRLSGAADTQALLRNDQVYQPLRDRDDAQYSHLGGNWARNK", "test": "flow cytometry on Jurkat cells expressing human CD3"}, "[8]": {"molecular_target": "human ROR1 (on CHO-K1/ROR1 cells and ROR1 tumour cell lines) (human) (UniProt Q01973)", "test": "flow cytometry on A549 cells (human ROR1 tumour cell line)"}, "[9]": {"molecular_target": "human ROR1 (on CHO-K1/ROR1 cells and ROR1 tumour cell lines) (human) (UniProt Q01973)", "test": "flow cytometry on PA-1 cells (human ROR1 tumour cell line)"}, "human ROR1 protein [10]": {"molecular_target": "T2, human ROR1 protein (human, UniProt Q01973 30-403, limits assumed)", "T2 construct": "Recombinant antigen of the SPR assay; also called ROR1 (SPR ligand)", "T2 sequence (Q01973 30-403 limits assumed)": "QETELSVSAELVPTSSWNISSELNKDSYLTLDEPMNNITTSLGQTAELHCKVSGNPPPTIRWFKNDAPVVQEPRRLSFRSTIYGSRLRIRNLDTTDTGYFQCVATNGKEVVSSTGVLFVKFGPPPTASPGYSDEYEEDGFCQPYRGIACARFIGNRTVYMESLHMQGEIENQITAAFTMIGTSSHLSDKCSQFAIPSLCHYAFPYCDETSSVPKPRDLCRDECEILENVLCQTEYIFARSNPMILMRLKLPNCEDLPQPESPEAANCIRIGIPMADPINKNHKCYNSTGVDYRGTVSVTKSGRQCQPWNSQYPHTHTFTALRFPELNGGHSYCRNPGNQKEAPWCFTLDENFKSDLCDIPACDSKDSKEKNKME", "test": "SPR (Biacore 8K); human ROR1 amine-coupled at 0.05 ug/mL as ligand, antibody as analyte"}, "[11]": {"molecular_target": "T3, human ROR1 (on CHO-K1/ROR1 cells and ROR1 tumour cell lines) (human, UniProt Q01973 30-937)", "T3 construct": "whole, on cells; also called receptor tyrosine kinase-like orphan receptor 1", "T3 sequence (Q01973 30-937)": "as the sequence (Q01973 30-937) above", "test": "flow cytometry on CHO-K1/ROR1 cells overexpressing human ROR1"}, "[12]": {"molecular_target": "T3, human ROR1 (on CHO-K1/ROR1 cells and …)", "test": "cell-based or functional assay"}, "human ROR1 protein [13]": {"molecular_target": "T2, human ROR1 protein", "test": "SPR (Biacore 8K); human ROR1 amine-coupled at 12.50 ug/mL as ligand, antibody as analyte"}, "[14]": {"molecular_target": "T3, human ROR1 (on CHO-K1/ROR1 cells and …)", "test": "flow cytometry on PA-1 cells (human ROR1 tumour cell line)"}, "human ROR1 protein [15]": {"molecular_target": "T2, human ROR1 protein", "test": "SPR (Biacore 8K); human ROR1 amine-coupled at 0.10 ug/mL as ligand, antibody as analyte"}, "human ROR1 protein [16]": {"molecular_target": "T2, human ROR1 protein", "test": "SPR (Biacore 8K); human ROR1 amine-coupled at 62.50 ug/mL as ligand, antibody as analyte"}, "[17]": {"molecular_target": "T3, human ROR1 (on CHO-K1/ROR1 cells and …)", "test": "flow cytometry on A549 cells (human ROR1 tumour cell line)"}, "[18]": {"molecular_target": "T3, human ROR1 (on CHO-K1/ROR1 cells and …)", "test": "flow cytometry on PSN-1 cells (human ROR1 tumour cell line)"}, "human ROR1 protein [19]": {"molecular_target": "T2, human ROR1 protein", "test": "SPR (Biacore 8K); human ROR1 amine-coupled at 0.50 ug/mL as ligand, antibody as analyte"}, "[20]": {"molecular_target": "T3, human ROR1 (on CHO-K1/ROR1 cells and …)", "test": "flow cytometry on A375 cells (human ROR1 tumour cell line)"}, "[21]": {"molecular_target": "T3, human ROR1 (on CHO-K1/ROR1 cells and …)", "test": "flow cytometry on Jeko-1 cells (human ROR1 tumour cell line)"}, "[22]": {"molecular_target": "T3, human ROR1 (on CHO-K1/ROR1 cells and …)", "test": "flow cytometry on MDA-MB-231 cells (human ROR1 tumour cell line)"}, "human ROR1 protein [23]": {"molecular_target": "T2, human ROR1 protein", "test": "SPR (Biacore 8K); human ROR1 amine-coupled at 2.50 ug/mL as ligand, antibody as analyte"}},
  "data": [
    {"molecule": "EMB-07 (bispecific antibody)", "values": [
      {"measurement": "EC50 of T cell activation based on reporter gene (luciferase), target cells A375", "setting": "[1]", "result": 0.428, "unit": "nM"},
      {"measurement": "EC50 of T cell activation based on reporter gene (luciferase), target cells Jeko-1", "setting": "[1]", "result": 0.155, "unit": "nM"},
      {"measurement": "EC50 of T cell activation based on reporter gene (luciferase), target cells MDA-MB-231", "setting": "[1]", "result": 0.0644, "unit": "nM"},
      {"measurement": "EC50", "setting": "[2]", "result": 3.84, "unit": "nM"},
      {"measurement": "EC50", "setting": "[3]", "result": 7.15, "unit": "nM"},
      {"measurement": "EC50", "setting": "[4]", "result": 2.39, "unit": "nM"},
      {"measurement": "EC50", "setting": "[5]", "result": 6.09, "unit": "nM"},
      {"measurement": "EC50", "setting": "[6]", "result": 2.5, "unit": "nM"},
      {"measurement": "EC50", "setting": "[7]", "result": 4.45, "unit": "nM"},
      {"measurement": "EC50", "setting": "[8]", "result": 4.01, "unit": "nM"},
      {"measurement": "EC50", "setting": "[9]", "result": 5.06, "unit": "nM"}
    ]},
    {"molecule": "B1", "values": [
      {"measurement": "Kd", "setting": "human ROR1 protein [10]", "result": 0.649, "unit": "nM"},
      {"measurement": "koff", "setting": "human ROR1 protein [10]", "result": 0.000421, "unit": "s⁻¹"},
      {"measurement": "kon", "setting": "human ROR1 protein [10]", "result": 649000, "unit": "M⁻¹ s⁻¹"},
      {"measurement": "EC50", "setting": "[11]", "result": 0.223, "unit": "nM"},
      {"measurement": "EC50 of T cell activation based on reporter gene (luciferase), target cells A375", "setting": "[12]", "result": 0.0117, "unit": "nM"},
      {"measurement": "EC50 of T cell activation based on reporter gene (luciferase), target cells Jeko-1", "setting": "[12]", "result": 0.00748, "unit": "nM"},
      {"measurement": "EC50 of T cell activation based on reporter gene (luciferase), target cells MDA-MB-231", "setting": "[12]", "result": 0.00258, "unit": "nM"},
      {"measurement": "Kd", "setting": "human ROR1 protein [13]", "result": 0.0349, "unit": "nM"},
      {"measurement": "koff", "setting": "human ROR1 protein [13]", "result": "5.83e-05", "unit": "s⁻¹"},
      {"measurement": "kon", "setting": "human ROR1 protein [13]", "result": "1.67e+06", "unit": "M⁻¹ s⁻¹"},
      {"measurement": "EC50", "setting": "[14]", "result": 0.547, "unit": "nM"},
      {"measurement": "Kd", "setting": "human ROR1 protein [15]", "result": 0.359, "unit": "nM"},
      {"measurement": "koff", "setting": "human ROR1 protein [15]", "result": 0.000169, "unit": "s⁻¹"},
      {"measurement": "kon", "setting": "human ROR1 protein [15]", "result": 471000, "unit": "M⁻¹ s⁻¹"},
      {"measurement": "Kd", "setting": "human ROR1 protein [16]", "result": 0.0267, "unit": "nM"},
      {"measurement": "koff", "setting": "human ROR1 protein [16]", "result": "2.83e-05", "unit": "s⁻¹"},
      {"measurement": "kon", "setting": "human ROR1 protein [16]", "result": "1.06e+06", "unit": "M⁻¹ s⁻¹"},
      {"measurement": "EC50", "setting": "[17]", "result": 0.415, "unit": "nM"},
      {"measurement": "EC50", "setting": "[18]", "result": 1.17, "unit": "nM"},
      {"measurement": "Kd", "setting": "human ROR1 protein [19]", "result": 0.354, "unit": "nM"},
      {"measurement": "koff", "setting": "human ROR1 protein [19]", "result": 0.000207, "unit": "s⁻¹"},
      {"measurement": "kon", "setting": "human ROR1 protein [19]", "result": 585000, "unit": "M⁻¹ s⁻¹"},
      {"measurement": "EC50", "setting": "[20]", "result": 0.155, "unit": "nM"},
      {"measurement": "EC50", "setting": "[21]", "result": 0.133, "unit": "nM"},
      {"measurement": "EC50", "setting": "[22]", "result": 0.308, "unit": "nM"},
      {"measurement": "Kd", "setting": "human ROR1 protein [23]", "result": 0.106, "unit": "nM"},
      {"measurement": "koff", "setting": "human ROR1 protein [23]", "result": "8.37e-05", "unit": "s⁻¹"},
      {"measurement": "kon", "setting": "human ROR1 protein [23]", "result": 788000, "unit": "M⁻¹ s⁻¹"},
      {"measurement": "EC50", "setting": "[7]", "result": 1.39, "unit": "nM"}
    ]}
  ]
}
